From patent US20150037348A1 (AbbVie / Abbott, published 2015) come the findings set out here.

Usually Kd stands for the constant that tells how readily two partners part at equilibrium.

Values joined by “and” are separate entries in the source; they are usually repeats but may differ in a detail not shown here. Equal entries are not always repeated.

Assay [1] addresses T1, recombinant human IL-12 (rhIL-12) (human, UniProt P29459 23-219; P29460 23-328).
T1 sequence (looked up) 1: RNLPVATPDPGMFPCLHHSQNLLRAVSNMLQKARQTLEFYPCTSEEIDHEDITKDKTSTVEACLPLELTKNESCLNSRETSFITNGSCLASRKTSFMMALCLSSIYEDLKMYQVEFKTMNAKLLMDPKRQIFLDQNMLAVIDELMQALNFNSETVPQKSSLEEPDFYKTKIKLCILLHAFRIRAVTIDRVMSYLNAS
T1 sequence (looked up) 2: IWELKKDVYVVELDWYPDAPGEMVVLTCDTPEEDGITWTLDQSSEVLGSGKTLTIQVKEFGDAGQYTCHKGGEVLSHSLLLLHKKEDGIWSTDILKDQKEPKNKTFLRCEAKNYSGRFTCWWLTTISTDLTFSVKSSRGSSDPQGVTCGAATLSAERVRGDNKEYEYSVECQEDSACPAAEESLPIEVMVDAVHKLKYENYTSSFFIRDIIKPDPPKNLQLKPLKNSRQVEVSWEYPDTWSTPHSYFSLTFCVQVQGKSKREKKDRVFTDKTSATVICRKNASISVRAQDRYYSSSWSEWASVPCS
The assay can be described thus: cell-based or functional assay.

For assay [2], the target named is T1, recombinant human IL-12 (rhIL-12). The assay can be described thus: BIAcore, captured J695, soluble rhIL-12, average. The procedure:
(§1) Before injection of the protein and immediately afterward, HBS buffer alone flowed through each flow cell. […] Cytokines were diluted in HBS running buffer and 50 μl aliquots were injected through the immobilized protein matrices at a flow rate of 5 μl/min. […] The net difference in baseline signal and signal after completion of cytokine injection was taken to represent the binding value of the particular sample. Biosensor matrices were regenerated using 100 mM HCl before injection of the next sample. To determine the dissociation constant (off-rate), association constant (on-rate), BIAcore kinetic evaluation software (version 2.1) was used.

Another assay has as its target T2, recombinant murine IL-12 (mouse, UniProt P43431 23-215; P43432 23-335).
T2 construct: rmIL12 of R&D Systems, Cat. No. 419-ML, in the BIAcore test; also called mouse IL-12; rmIL12
T2 sequence (looked up) 1: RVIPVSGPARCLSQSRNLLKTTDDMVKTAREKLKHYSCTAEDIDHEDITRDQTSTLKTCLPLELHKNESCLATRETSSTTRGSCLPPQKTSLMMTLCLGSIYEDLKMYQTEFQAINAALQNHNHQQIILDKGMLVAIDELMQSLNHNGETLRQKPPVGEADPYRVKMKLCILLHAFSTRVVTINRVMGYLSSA
T2 sequence (looked up) 2: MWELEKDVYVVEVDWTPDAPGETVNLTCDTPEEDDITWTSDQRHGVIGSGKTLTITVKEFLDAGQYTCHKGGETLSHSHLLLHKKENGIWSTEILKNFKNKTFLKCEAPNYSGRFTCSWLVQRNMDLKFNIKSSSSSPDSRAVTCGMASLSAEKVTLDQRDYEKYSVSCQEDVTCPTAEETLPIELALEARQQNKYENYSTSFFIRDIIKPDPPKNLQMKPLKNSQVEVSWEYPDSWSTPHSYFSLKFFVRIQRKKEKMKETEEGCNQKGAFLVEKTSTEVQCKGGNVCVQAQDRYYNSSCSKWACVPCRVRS
The assay can be described thus: BIAcore, COS J695 captured via goat anti-human IgG, cytokine in solution. The procedure: as §1
(In general: In SPR one partner is held on a chip, and binding of the other changes the refractive index at the surface.)

B1: J695 (antibody, human IgG1, V domains shown)
VH: QVQLVESGGGVVQPGRSLRLSCAASGFTFSSYGMHWVRQAPGKGLEWVAFIRYDGSNKYYADSVKGRFTISRDNSKNTLYLQMNSLRAEDTAVYYCKTHGSHDNWGQGTMVTVSS
VL: QSVLTQPPSVSGAPGQRVTISCSGSRSNIGSNTVKWYQQLPGTAPKLLIYYNDQRPSGVPDRFSGSKSGTSASLAITGLQAEDEADYYCQSYDRYTHPALLFGTGTKVTVLG
notes: human IgG1 with lambda light chain
In the case of B1, in assay [1], the “PHA blast IC50” value was 5.8 pM. Moreover, the Kd in assay [2] is 0.134 nM and 0.0974 nM. In addition, the binding result with recombinant murine IL-12 was “no binding”.
